Broadly, the Kd is the free concentration of one partner at which half of the binding sites on the other are occupied at equilibrium, for simple one-to-one binding. Low values mean tighter binding, high ones weaker binding.

This note sets out measurements from patent CN1827647A (SHANGHAI ZHANGJIANG BIO TECH C, dated 2006).

The assay has as its target T1, EGFR蛋白 (表皮生长因子受体, 购自晶美生物公司) (UniProt P00533 25-645, limits assumed).
T1 construct: Bought protein used as the coating antigen; also called c-erbB1/Her1
Put plainly: Scatchard analysis; concluding sentence on the result.

B1: 3C6单克隆抗体 (重组人源抗EGFR单克隆抗体, produced by CHO cell line 3C6) (antibody, V domains shown)
VH: QVQLKESGPGLVAPSQSLSITCTVSGFSLTNYGVHWVRQPPGKGLEWLGVIWSGGNTDYNTPFTSRLNISKDNSKSQVFLRMYSLQTDDTARYYCARALTYYDYEFAYWGQGTLVTVSS
VL: not shown
B1 yielded a Kd of approximately 1 nM.
